Assay [1] deals with α7-mCherry (human α7 nicotinic acetylcholine receptor subunit with mCherry in the M3-M4 cytoplasmic loop) (human) (UniProt P36544).
Assay [2] has the same target. The assay is described as follows: FRET or BRET; acceptor photobleaching FRET (apFRET) by confocal microscopy in live HEK293 cells 2 days after transfection; eGFP donor, mCherry acceptor; region of interest in the ER; in DMEM at 37 °C and 5% CO2. On the technique in general: BRET reads energy transfer from a luciferase to a nearby fluorophore.
Assay [3] shares this target. This is another data set of the same source.

From PMC10933150 come the findings set out here.

Sequence of UniProt P36544 (P36544 23-502): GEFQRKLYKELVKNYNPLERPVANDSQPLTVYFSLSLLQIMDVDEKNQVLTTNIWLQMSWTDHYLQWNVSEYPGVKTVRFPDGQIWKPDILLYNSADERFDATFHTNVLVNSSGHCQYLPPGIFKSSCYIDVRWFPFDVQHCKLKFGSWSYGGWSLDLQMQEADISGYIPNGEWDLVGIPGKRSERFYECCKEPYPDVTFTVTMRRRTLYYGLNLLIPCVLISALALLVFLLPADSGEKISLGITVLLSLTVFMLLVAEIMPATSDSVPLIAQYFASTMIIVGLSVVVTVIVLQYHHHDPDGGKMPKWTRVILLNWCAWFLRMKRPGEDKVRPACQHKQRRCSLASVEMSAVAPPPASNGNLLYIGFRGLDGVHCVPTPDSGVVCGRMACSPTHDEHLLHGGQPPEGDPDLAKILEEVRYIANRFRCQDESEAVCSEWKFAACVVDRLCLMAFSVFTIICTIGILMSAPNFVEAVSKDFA

In turn, “eGFP-RIC3G88R (RIC3 variant G88R with eGFP fused to the N-terminus) (from UniProt Q7Z5B4-5 29-368) (natural protein)” registered a ^125I-α-bungarotoxin binding to intact HEK293 cells (cell surface α7), decrease with eGFP-RIC3G88R against eGFP-RIC3WT, α7:RIC3 cDNA 1:1 or 5:1 in assay [1] of 50%. The substance further had an FRET efficiency (EF) in assay [2] of 10.7%. Moreover, in assay [3], the fold decrease in amplitude of maximal currents elicited by 1 mM acetylcholine in Xenopus oocytes (level of functional α7 nAChR); untagged α7 and RIC3G88R, tagged constructs gave the same pattern (data not shown) was 1.5 fold.
Consider “eGFP-RIC3WT (wild-type RIC3 with eGFP fused to the N-terminus) (from UniProt Q7Z5B4-5 29-368) (natural protein)”, for which, in assay [2], the FRET efficiency (EF) came to 7.24%.
